PMC10044410

What was measured:
[1] = target: GroEL (wild type, recombinant, from pET22b-groL) (E. coli) (UniProt P0A6F5); test: SEC
[2] = target: FM-CnoX (fluorescein-5-maleimide-labeled CnoX) (E. coli) (UniProt P77395); test: fluorescence polarisation
[3] = target: FM-CnoX (fluorescein-5-maleimide-labeled CnoX) (E. coli) (UniProt P77395); test: other fluorescence titration

Substance: CnoX (wild type, recombinant, from pET22b-cnoX) (from UniProt P77395 1-284) (natural protein)
- stoichiometry N (CnoX per GroEL double ring) [1]: 1

Substance: GroEL (untagged, from pET15b, for quantitative binding studies) (from UniProt P0A6F5 1-548) (natural protein)
- Kd [2]: 310 nM
- Kd [3]: 350 nM
